Measurements reported in paper PMC6346101.

Assays:
[1] = biological target: Influenza D virus nucleoprotein, strain D/bovine/France/2986/2012 (Influenza D virus, strain D/bovine/France/2986/2012); experiment: SEC-MALLS
[2] = biological target: Influenza D virus nucleoprotein, strain D/bovine/France/2986/2012 (Influenza D virus, strain D/bovine/France/2986/2012); experiment: negative-stain electron microscopy
[3] = biological target: His-tagged D/NP_(TAIL) (505-D/NP-552) (Influenza D virus, strain D/bovine/France/2986/2012); experiment: thermal shift assay (Thermofluor)
[4] = biological target: Biotinylated D/NP_(TAIL) fused to a biotinylation motif (Influenza D virus, strain D/bovine/France/2986/2012); experiment: SPR; Biacore 3000; […]; 10 mM Hepes pH 7.4, 150 mM NaCl, 0.05% Tween 20; […]

Sequence of human importin-α7 without its IBB domain (amino-acids 58 to 536), O60684 58-536 (domain or fragment; other documents disagree on this pair) (O60684 58-536): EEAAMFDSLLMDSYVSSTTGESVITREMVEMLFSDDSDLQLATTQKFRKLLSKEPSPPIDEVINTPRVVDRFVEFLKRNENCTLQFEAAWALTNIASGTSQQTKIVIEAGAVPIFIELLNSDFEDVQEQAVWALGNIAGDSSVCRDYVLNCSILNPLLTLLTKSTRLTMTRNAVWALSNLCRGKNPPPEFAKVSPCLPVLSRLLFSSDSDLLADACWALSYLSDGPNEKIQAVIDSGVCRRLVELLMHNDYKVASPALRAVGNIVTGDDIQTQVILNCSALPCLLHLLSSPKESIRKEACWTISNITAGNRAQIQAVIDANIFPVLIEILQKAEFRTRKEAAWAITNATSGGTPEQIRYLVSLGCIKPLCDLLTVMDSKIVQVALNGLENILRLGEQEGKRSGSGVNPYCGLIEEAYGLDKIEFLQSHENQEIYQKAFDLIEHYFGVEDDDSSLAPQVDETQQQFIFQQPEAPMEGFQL

Substance	stoichiometry N [1]	stoichiometry N [2]	rise of the melting temperature [3] [°C]	stoichiometry N (importin-α7 per D/NP tetramer) [1]	Kd [4] [nM]
Influenza D virus nucleoprotein, strain D/bovine/France/2986/2012 (from UniProt A0A0E3VZU8 1-552) (natural protein)	4	4	–	–	–
human importin-α7 without its IBB domain (amino-acids 58 to 536), O60684 58-536 (domain or fragment; other documents disagree on this pair)	–	–	5	4	100
